Test results: publication PMC8373988 (2021)
Where a chain is given by its changes, count along the chain named. Numbers in names are those of the source.

B1: FICD^L258D-H363A (residues 104–445), monomeric, catalytically inactive [human] / AMPylated biotinylated-AviTag-haBiP^T229A-V461F (residues 27–635) [modified: AMP covalently attached to Thr518 (Thr518-AMP); biotin on the N-terminal Avi-tag; … (parent complex)
chain 1: LEARAALNQALEMKRQGKREKAQKLFMHALKMDPDFVDALTEFGIFSEEDKDIIQADYLYTRALTISPYHEKALVNRDRTLPLVEEIDQRYFSIIDSKVKKVMSIPKGNSALRRVMEETYYHHIYHTVAIEGNTLTLSEIRHILETRYAVPGKSDEEQNEVIGMHAAMKYINTTLVSRIGSVTISDVLEIHRRVLGYVDPVEAGRFRTTQVLVGHHIPPHPQDVEKQMQEFVQWLNSEEAMNLHPVEFAALAHYKLVYIAPFIDGNGRTSRLLMNLILMQAGYPPITIRKEQRSDYYHVLEAANEGDVRPFIRFIAKCTETTLDTLLFATTEYSVALPEAQP
chain 2: not shown
B2: FICD^H363A (residues 104–445), dimeric, catalytically inactive [human] / AMPylated biotinylated-AviTag-haBiP^T229A-V461F (residues 27–635) [modified: AMP covalently attached to Thr518 (Thr518-AMP); biotin on the N-terminal Avi-tag; AMP … (parent complex)
chain 1: B1 chain 1 with D155L
chain 2: not shown

Variants of: B1
Experiment: BLI; 50 nM FICD analyte, oxidised (TPRox); immobilised BiP activated in 2 mM ATP; read at end of apo association (600 s); parent: 0.68; read off a plot

| Variant | response [nm] |
| --- | --- |
| chain 1 D57C, chain 1 T80C, chain 1 C318S | ~0.92 |

Variants of: B1
Experiment: BLI; 50 nM FICD analyte, oxidised (TPRox); immobilised BiP-AMP activated in 2 mM ATP; read at end of apo association (600 s); parent: 0.7; read off a plot

| Variant | response [nm] |
| --- | --- |
| chain 1 D57C, chain 1 T80C, chain 1 C318S | ~0.91 |

Variants of: B1
Experiment: BLI; 50 nM FICD analyte; immobilised BiP-AMP activated in 2 mM ATP; read at end of apo association (600 s); parent: 0.7; read off a plot

| Variant | response [nm] |
| --- | --- |
| chain 1 E2R | ~0.12 |
| chain 1 H28A | ~0.2 |

Variants of: B2
Experiment: BLI; 50 nM FICD analyte, oxidised (TPRox); immobilised BiP activated in 2 mM ATP; read at end of apo association (600 s); parent: 0.24; read off a plot

| Variant | response [nm] |
| --- | --- |
| chain 1 D57C, chain 1 T80C, chain 1 C318S | ~0.31 |

Variants of: B2
Experiment: BLI; 50 nM FICD analyte, oxidised (TPRox); immobilised BiP-AMP activated in 2 mM ATP; read at end of apo association (600 s); parent: 0.74; read off a plot

| Variant | response [nm] |
| --- | --- |
| chain 1 D57C, chain 1 T80C, chain 1 C318S | ~0.79 |

Variants of: B2
Experiment: BLI; 50 nM FICD analyte; immobilised BiP activated in 2 mM ATP; read at end of apo association (600 s); parent: 0.24; read off a plot

| Variant | response [nm] |
| --- | --- |
| chain 1 K21E | ~0.01 |
| chain 1 E2R | ~0.04 |

Variants of: B2
Experiment: BLI; 50 nM FICD analyte; immobilised BiP-AMP activated in 2 mM ATP; read at end of apo association (600 s); parent: 0.74; read off a plot

| Variant | response [nm] |
| --- | --- |
| chain 1 K21E | ~0.43 |
| chain 1 H28A | ~0.66 |
| chain 1 K21E, chain 1 H28A | ~0.03 |
| chain 1 E2R | ~0.73 |

Variants of: B2
Experiment: BLI; 50 nM FICD analyte; immobilised BiP activated in 2 mM ATP; read at end of apo association (600 s); parent: 0.2; read off a plot

| Variant | response [nm] |
| --- | --- |
| chain 1 L155D | ~0.75 |

Variants of: B2
Experiment: BLI; 50 nM FICD analyte; immobilised BiP-AMP activated in 2 mM ATP; read at end of apo association (600 s); parent: 0.92; read off a plot

| Variant | response [nm] |
| --- | --- |
| chain 1 L155D | ~0.75 |
